Assay results: publication PMC8053095
Changes are numbered by the printed parent chain. Where two headings read alike, the source gives them in different places.

How the values were obtained:
ToPif1 S69C/S405C [1] = target: T1, ToPif1 S69C/S405C (Thermus oshimai, UniProt K7RJ88 64-507, S69C;S405C); test: smFRET
T1 sequence: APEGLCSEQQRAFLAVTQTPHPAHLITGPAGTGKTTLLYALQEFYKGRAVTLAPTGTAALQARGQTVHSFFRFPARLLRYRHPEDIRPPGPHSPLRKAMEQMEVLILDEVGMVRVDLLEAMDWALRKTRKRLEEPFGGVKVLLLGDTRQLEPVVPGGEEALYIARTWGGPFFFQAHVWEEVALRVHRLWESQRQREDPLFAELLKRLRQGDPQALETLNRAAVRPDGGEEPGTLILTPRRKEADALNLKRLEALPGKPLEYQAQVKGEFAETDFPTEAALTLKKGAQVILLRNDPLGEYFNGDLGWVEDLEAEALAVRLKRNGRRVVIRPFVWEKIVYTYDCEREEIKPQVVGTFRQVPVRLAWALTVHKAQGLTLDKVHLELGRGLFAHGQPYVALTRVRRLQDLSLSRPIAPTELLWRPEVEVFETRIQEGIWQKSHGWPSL

ToPif1 [2] = target: T2, ToPif1 (Thermus oshimai, UniProt K7RJ88 64-507); test: crystal structure
T2 sequence: T1 sequence with C6S, C342S

ToPif1 S69C/S405C [3] = target: T1, ToPif1 S69C/S405C; test: smFRET; remark: listed apart in the source
ToPif1 [4] = target: T2, ToPif1; test: DLS

B1: S8D38 (dsDNA)
DNA 1: TTTTTTTTTCCGGATCACCATGGCGGACTCTCTGCTCTCGTGCTCC
DNA 2: GGAGCACGAGAGCAGAGAGTCCGCCATGGTGATCCGGA
B1: binds (ToPif1 S69C/S405C [1]).

B2: S7D11 (dsDNA)
DNA 1: TTTTTTTCGCAGTGCTCG
DNA 2: CGAGCACTGCG
B2: binds (ToPif1 [2]).

B3: dT8 (ssDNA)
DNA: TTTTTTTT
B3: binds (ToPif1 S69C/S405C [3]).

B4: dT15 (ssDNA)
DNA: TTTTTTTTTTTTTTT
B4: binds (ToPif1 [4]).
